Laboratory results: patent US20150337012A1 (HOYA, published 2015)
Where no end group is shown, it is not given here. The star is where a group is joined. FITC = O=C1OC2(c3ccc(O)cc3Oc3cc(O)ccc32)c2ccc(NC(=S)*)cc21; Ahx = NCCCCCC(=O)O

biological target: T1, recombinant human EGFR/Fc chimera (rhEGFR, R&D Systems) (human, UniProt P00533 25-645); experiment: phage binding to plate-coated protein, titer ratio
T1 construct: Bought reagent; Coated on the plate at 1 ug/well; also called genetically modified EGFR protein; not shown: human IgG1 Fc moiety of the chimera
Procedure: After removal of the blocking buffer, the wells were washed with 200 μl of 0.5% TBST being the washing solution three times and thereto was finally added 100 μl of 0.5% TBST. […] In the reaction, the mixture was gently shaken at room temperature for 1 hour. The reaction solution was removed and the wells were washed with 200 μl of 0.5% TBST ten times, 100 μl of 0.2 M glycine-HCl (pH 2.2) was added to the wells and stirred by pipetting, thereafter gently shaking at room temperature for 10 minutes. The eluate was collected to a microtube from the wells and added with 15 μl of 1 M Tris-HCl (pH 9.1) to be neutralized and a target binding phage solution was thus obtained. The binding ability of the collected phage was examined by a measurement of a titer.
A rhEGFR that is a target protein, a recombinant human ErbB2(rhErbB2, PROSPEC) as a HER2 protein belonging to the ErbB family same as an EGFR, are combinant human IGF-1R, CF(rhIGF-1R, R&D Systems) as an IGF-1R protein that is one of extracellular proteins were added to a 96-well microplate to be 1 μg/well, and stood still at 4° C. overnight to be thus formed into a solid phase. A protein solution was removed, 300 μl of a blocking buffer was added and the mixture was incubated at 37° C. for 1 hour to thus block the wells. After removal of the blocking buffer, the wells were washed three times with 200 μl of 0.5% TBST washing solution, and finally 100 μl of 0.5% TBST was added thereto. […] In the reaction, the mixture was gently shaken at room temperature for 1 hour. The reaction solution was removed, the wells were washed with 200 μl of 0.5% TEST ten times, and 100 μl of 0.2 M glycine-HCl (pH 2.2) was then added to the wells and stirred by pipetting, thereafter gently shaking at room temperature for 10 minutes. The eluate was collected to a microtube from the wells and added with 15 μl of 1 M Tris-HCl (pH 9.1) to be neutralized and a target binding phage solution was thus obtained.

Binder	fold binding to rhEGFR over binding to BSA	fold binding to rhEGFR over binding to rhErbB2	fold binding to rhEGFR over binding to rhIGF-1R	fold binding to rhEGFR over binding to rhIgG1
LHQSEWMYVDIH (peptide, not shown: large carriers, tested as phage particles) [I-1015 phage (peptide displayed phage from the D12 library)]	14000 times	4740 times	7710 times	19000 times
FHDWLPEVSPPD (peptide, not shown: large carriers, tested as phage particles) [I-1012 phage (peptide displayed phage from the D12 library)]	3100 times	1580 times	4340 times	3420 times
WHLSDLWQNAWH (peptide, not shown: large carriers, tested as phage particles, 1x10^10 PFU per well) [I-1010 phage (peptide displayed phage from the D12 library)]	3810 times	1760 times	2830 times	1660 times

biological target: T1, recombinant human EGFR/Fc chimera …; experiment: substituted phage binding to plate-coated rhEGFR, titer ratio
Procedure: A rhEGFR that is a target protein was added to a 96-well microplate to be 1 μg/well, and stood still at 4° C. overnight to be thus formed into a solid phase. A protein solution was removed, 300 μl of a blocking buffer (5 mg/mL BSA/TBS) was added and the mixture was incubated at 37° C. for 1 hour to thus block the wells. After removal of the blocking buffer, the wells were washed with 200 μl of 0.5% TBST (0.5% Tween20/TBS) being the washing solution three times and thereto was finally added 100 μl of 0.5% TEST. An amplification phage solution was added to the above described wells to have 1×10¹⁰ PFU and mixed by pipetting. In the reaction, the mixture was gently shaken at room temperature for 1 hour. The reaction solution was removed and the wells were washed with 200 μl of 0.5% TBST ten times, 100 μl of 0.2 M glycine-HCl (pH 2.2) was then added to the wells and stirred by pipetting, thereafter gently shaking at room temperature for 10 minutes. The eluate was collected to a microtube from the wells and added with 15 μl of 1 M Tris-HCl (pH 9.1) to be neutralized and a target binding phage solution was thus obtained. The binding ability of the collected phage was examined by a measurement of a titer.

Binder	binding result
WHISDLWQNAWH (peptide, not shown: large carriers, also called L3I) [I-1010 amino acid substituted phage, 3rd L substituted with I]	binds
WHLSDLFQNAWH (peptide, not shown: large carriers, also called W7F) [I-1010 amino acid substituted phage, 7th W substituted with F]	binds
WHMSDLWANAWH (peptide, not shown: large carriers, Phage with two substituted amino acids; also called L3M/Q8A) [I-1010 phage in which the 3rd L was substituted with M and the 8th Q was substituted with A]	binds
WHLSDLYQNAWH (peptide, not shown: large carriers, also called W7Y) [I-1010 amino acid substituted phage, 7th W substituted with Y]	binds
WHMSDLWQNAWH (peptide, not shown: large carriers, also called L3M) [I-1010 amino acid substituted phage, 3rd L substituted with M]	binds
WHVSDLWQNAWH (peptide, not shown: large carriers, also called L3V) [I-1010 amino acid substituted phage, 3rd L substituted with V]	binds
FHLSDLWQNAWH (peptide, not shown: large carriers, also called W1F) [I-1010 amino acid substituted phage, 1st W substituted with F]	binds
FHLSDLWANAWH (peptide, not shown: large carriers, Phage with two substituted amino acids; also called W1F/Q8A) [I-1010 phage in which the 1st W was substituted with F and the 8th Q was substituted with A]	binds

biological target: T2, EGFR expressed by A-431 cells (human, UniProt P00533 25-1210); experiment: confocal fluorescence microscopy of A-431 cells with 100 µM FITC-labeled peptide
T2 construct: whole, on cells; also called EGFR expressed by cells
Procedure: A-431 cells were inoculated in a glass bottom dish to be 20×10⁴ cells/dish and MCF7 cells were inoculated in a glass bottom dish to be 75×10⁴ cells/dish, and cultured at 37° C. in the condition of CO₂ for 24 hours. After culturing each kind of the cells for a specified time, EGF was added to have a concentration of 100 ng/mL and the mixture was cultured for 6 days. Thereafter, the culture solution in the dish was removed and washed with 1000 μL of a growth medium at 37° C. ten times. […] A staining fluid was removed and washed with 1 mL of a growth medium at 37° C. three times and thereto was finally added 1 mL of the medium. For observation, fluorescent observation was carried out by irradiating an exciting light laser with a wavelength of 488 nm using a confocal microscope (Leica SP2).

Binder	binding result
{FITC-Ahx}-WHLSDLWQNAWH [Pep055-F (FITC-labeled Pep055)]	binds

biological target: T2, EGFR expressed by A-431 cells; experiment: phage binding to A-431 cells at 4 °C, titer ratio corrected for the number of collected cells
Procedure: A-431 cells were inoculated in a 6-well culture plate at 40×10⁴ cells/well and cultured at 37° C. in the condition of 5% CO₂ overnight. The plate was incubated at 4° C. for 30 minutes and a medium in each well was removed, and treated by washing with 1 mL of 1% BSA/PBS twice. […] After the reaction, the reaction solution was removed and washed with 1 mL of 1% BSA/PBS ten times to remove non-binding phages. Thereto was added 100 μl of a 0.05% trypsin/0.53 mM EDTA solution and the reaction solution was incubated at 37° C. for about 10 minutes and added with 900 μl of a growth medium to prepare a collected phage solution. A titer of each collected phage solution was measured.

Binder	fold titer ratio over that of the M13KE phage
WHLSDLWQNAWH (peptide, not shown: large carriers, tested as phage particles, 1x10^10 PFU per well) [I-1010 phage (peptide displayed phage from the D12 library)]	45 times
